From publication PMC10543594

Tests used:
[1] = biological target: SARS-CoV-2 Alpha variant spike ectodomain fused to resistin (SARS-CoV-2 | human) (UniProt P0DTC2); test: SEC-MALS
[2] = biological target: SARS-CoV-2 Delta spike ectodomain without trimerization domain (SARS-CoV-2) (UniProt P0DTC2)

| Substance | stoichiometry N [1] | percent trimeric [2] [%] |
| --- | --- | --- |
| SARS-CoV-2 Alpha variant spike ectodomain fused to resistin (from UniProt P0DTC2 14-1213) | 6 |  |
| SARS-CoV-2 Delta spike ectodomain without trimerization domain (from UniProt P0DTC2 14-1213) (domain or fragment) |  | 30 to 50 |
